Data: patent US8431161B2, “Microparticle and pharmaceutical composition thereof” (Toray Industries, Inc., priority 2008, dated 2013)
Where two headings read alike, the source gives them in different places.

Columns and labels:
[1] = Body weight changes of pituitary gland extracted mouse after hGH microparticles; assay type: in vivo; settings: hypodermic administration
[2] = mouse, in vivo
Protocol: 300 mg of the prepared microparticles was suspended and dispersed in 3 ml of phosphate physiological buffer solution (PBS), and centrifuged for 5 minutes at 80×g to precipitate microparticles, and the supernatant was transferred into other tube. The supernatant was centrifuged again for 5 minutes at 80×g to precipitate the remaining particles, and the supernatant was removed. By re-dispersing in 1 ml of PBS after first time of centrifugal precipitation and second time of centrifugal precipitation, the same centrifugal cleaning operation was repeated three times, and the growth hormone not encapsulated in the microparticles were removed. Finally, the precipitation was dispersed again in 200 μl of PBS, and an administration solution was obtained.
This solution was injected hypodermically at two positions in the back of 10-week male Balb/C mouse, and the blood was sampled at specific time intervals from the caudal vein. In the sampled blood, heparin of final concentration of 3.31 U/ml was added, and plasma was collected by centrifugal separation for 5 minutes at 5,000 rpm, and the concentration of growth hormone in plasma was measured by using an ELISA kit.
By way of comparison, a non-granulated human growth hormone protein solution (700 μg/0.2 ml) was hypodermically administered in mouse, and the blood was sampled similarly. […]

[3] = mouse, in vivo; remark: listed apart in the source
Protocol: (§1) The supernatant was centrifugally separated again for 5 minutes at 80×g, and the remaining particles were precipitated, and the supernatant was removed.

[4] = Hypodermic administration of Exendin-4-encapsulating microparticles in SCID mouse, Exendin-4 in plasma; assay type: in vivo; settings: 700 μg/0.2 ml
Protocol: as §1
This solution was hypodermically injected in the back of 8-week-old SCID mouse (CB17/lcr-Prkdcscid/CrlCrlk) (from Crea Japan Inc.), and the blood was sampled at specific intervals from the caudal vein.

Row | Substance | body weight increase [1] | time in which blood level dropped to a level before administration [2] | time in which blood level dropped to a level before administration [3] | blood level in 1 hour after administration (Exendin-4 in plasma) [4]
1 | human growth hormone [non-granulated human growth hormone] | about 5% | a day | – | –
2 | Exendin-4 [non-granulated Exendin-4] | – | – | a day | very high
